First the molecules themselves.
B1: TNFR2 antibody #088 (antibody, V domains shown)
VH: EVQLQESGGGLVQPGGSLNLSCAASGFAFSTYDLSWVRQTPGKRLEWVAYINNGGISTYYSDTVKGRFTITRDNAKNTLYLQMSSLKSEDTAMYYCVRGPFYGSANYFDYWGQGTTVTVSS
VL: DILMTQSPASLSLFVGETVTITCRASENIYSNLAWYQQKQGKSPQLLVYDATKLAEGVPSRFSGSESGTQYSLKINSLQSEDFGTYYCQHFWVTPWTFGGGTKLEIK
B2: TNFR2 antibody #133 (antibody, V domains shown)
VH: EVQLQESGAELVRSGASVKLSCTASGFNIKDYYIQWVKQRPEQGLEWIGWIDPESGNTKYAPKFQDKATMTADTSSNTAYLQLSGLTSEDSAVYYCNAYYDYDGSMDYWGQGTTVTVSS
VL: DIVMTQSPLSLPVSLGDQASISCRSSQSLVHSNGNTYLHWYLQKPGQSPKLLIYKVSNRFSGVPDRFSGSGSGTDFTLKISRVETDDLGVYFCSQSTHVPTWTFGGGTKLEIK
B3: TNFR2 antibody #365 (antibody, V domains shown)
VH: EVQLQESGPGLVQPSQSLSITCTVSGFSLTSYGVHWVRQSPGKGLEWLGLIWSDGSPDYSAAFISRLSINKDNSKSQVFFKMNSLQADDTAIYYCARNDDGGDYVMDYWGQGTTVTVSS
VL: EIVLTQSPALMSASPGEKVTMTCSASSSVSYMYWYQQKPRSSPKPWIYLTSNLASGVPARFSGSGSGTSYSLTISSMEAEDAATYYCQQWTSNPLTFGAGTKLEIK
B4: TNFR2 antibody #219 (antibody, V domains shown)
VH: EVQLQESGAELVRPGASVKLSCKASGYSFTNYWMNWVKQRPGQGLEWIGMIHPSDTETRLNQNFKDKATLTVDKSSSTSYMQLSSPTSEDSAVYYCARGEGLGAARSVSMDYWGQGTTVTVSS
VL: DILMTQSPSSLSASLGDRVTISCRASQDISNYLNWYQQKPDGTVKVLIYYTAILHSGVPSRFSGSGSGTDYSLTISNLEQEDIATYFCQQGNTLPWTFGGGTKLEIK
B5: TNFR2 antibody #226 (antibody, V domains shown)
VH: B4 VH with T56S, N63K, S79A
VL: B4 VL with L3Q, I53L

Positions count from the first letter of the chain named.

The first assay deals with T1, human TNFR2 on the cell surface (CHO-TNFR2 cells; human Treg cells) (human, UniProt P20333 23-461).
T1 construct: whole, on cells; The assay field of each row says which cells; also called TNFR2-CHO cell; TNFR2 on Treg cells
T1 sequence (looked up): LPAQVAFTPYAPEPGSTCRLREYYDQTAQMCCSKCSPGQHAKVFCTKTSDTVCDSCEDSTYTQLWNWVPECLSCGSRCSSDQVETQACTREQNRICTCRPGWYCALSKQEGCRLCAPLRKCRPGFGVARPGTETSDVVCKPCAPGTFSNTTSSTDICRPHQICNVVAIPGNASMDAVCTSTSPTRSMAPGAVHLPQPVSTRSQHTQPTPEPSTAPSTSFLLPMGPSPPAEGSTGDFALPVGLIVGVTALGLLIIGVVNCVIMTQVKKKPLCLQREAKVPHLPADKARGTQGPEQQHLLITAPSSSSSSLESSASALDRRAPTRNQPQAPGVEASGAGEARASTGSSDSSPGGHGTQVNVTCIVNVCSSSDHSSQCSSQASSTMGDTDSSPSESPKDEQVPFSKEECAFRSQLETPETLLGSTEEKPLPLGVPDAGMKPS
Description: flow cytometry, blocking of TNFα-biotin on CHO-TNFR2 cells; against 002#. As for the experimental part:
(§1) CHO cells that stably overexpressed human TNFR2 were used for experiments. The cells were resuscitated and passaged until in good state, and the expression level of human TNFR2 on the cells was assessed by FACS. Compared to the isotype control, the assay could be carried out when the fold change of mean fluorescence intensity (MFI) was more than 100 times.
(§2) CHO-TNFR2 cells were digested, washed twice with DPBS and stained with Live/Dead (L/D) at room temperature for 20 min, and then seeded at 1×10⁵ cells/50 μl/well. […] The diluted antibodies were added 50 μl/well into wells pre-seeded with cells, and gently blown and mixed to make the final concentrations of the antibodies to 20, 6.67, 2.22, 0.74, 0.247, 0.08, 0.027 and 0 nM, respectively followed by incubation at 4° C. for 30 min. […] After washing twice with the staining buffer, 100 μl/well of PE-streptavidin was added and incubated at 4° C. for 30 min. After additional washing with the staining buffer twice, 150 μl resuspended cells was analyzed using an flow cytometry. Taking the logarithmic value of the antibody concentrations as abscissa and the corresponding MFI value as ordinate, the inhibition curve of the antibody was drawn, and the IC50 value was calculated by four parameters fitting.
On the technique in general: Flow cytometry measures light scatter and fluorescence of single cells or particles in a stream.
B1: the “IC50 Relative Value %” value was determined as 41.5%.
Take B2: the “IC50 Relative Value %” value was determined as 150%.
The same measure, in the same setting: for B3 the value was 232%; for B4, 71.4%; for B5, 129%.

The next assay addresses T2, human TNFR2 (Novoprotein, Catalog No. C830) (human, UniProt P20333 23-257, limits assumed).
T2 construct: construct not described; also called TNFR2 protein
T2 sequence (looked up): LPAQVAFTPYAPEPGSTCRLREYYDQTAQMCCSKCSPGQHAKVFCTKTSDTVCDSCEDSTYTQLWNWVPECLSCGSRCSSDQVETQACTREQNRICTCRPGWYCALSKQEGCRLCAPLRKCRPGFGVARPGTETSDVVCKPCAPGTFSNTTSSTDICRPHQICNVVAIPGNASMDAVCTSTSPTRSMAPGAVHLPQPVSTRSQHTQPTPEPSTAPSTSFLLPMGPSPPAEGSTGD
Briefly: blocking ELISA, TNFα-biotin on coated human TNFR2, antibody 2 nM. As for the experimental part: (§3) A microplate was pre-coated with 100 μl/well of 1 μg/ml human TNFR2 (Novoprotein, Catalog No. C830). […] After washing the plate, a Streptavidin-HRP working solution (1:10000 dilution) was added at 100 μl/well, and incubated with shaking at room temperature for 40 min. The plate was washed again, the HRP substrate TMB was added for color development, the termination solution was added to terminate the reaction, and the microplate reader was used to read the absorption value.
Regarding B1, the “ELISA OD of antibodies to be tested (2 nM)” value is 2.34 OD.
As to B2, the “ELISA OD of antibodies to be tested (2 nM)” value stood at 2.11 OD.
The same measure, in the same setting: the value for B3 was 1.26 OD; that for B4 was 0.756 OD; that for B5 was 0.709 OD.

The target of the next assay is T1, human TNFR2 on the cell surface …. Briefly: flow cytometry, blocking of TNFα-biotin on CHO-TNFR2 cells; AUC for 002# / AUC for antibody x 100. As for the experimental part:
as §1, §2
In turn, B1 gave an AUC % of 75.4%.
In turn, B2 registered an AUC % of 99.9%.
The same measure, in the same setting: the value for B3 was 117%; that for B4 was 93.7%; that for B5 was 98.7%.

The target is the same in a further assay. Description: cell-based or functional assay.
On to B1, for which the “proliferation inhibition (TNFα-induced Treg cell proliferation, against anti-Hel)” value (from here on “proliferation inhibition”) was 6.9%.
The same measure, in the same setting: for B2 the value was 9.7%; for B3, 11%.
Regarding B4, the “proliferation inhibition” value was determined as 13.6%.
For the molecule B5, the “proliferation inhibition” value was found to be 10.3%.

The target is the same in another assay. Briefly: flow cytometry, blocking of TNFα-biotin on CHO-TNFR2 cells.
For the molecule B1, the “Antibody AUC” value turned out to be 24300.
Still for that read-out and setting: for B2 the value was 17300; for B3, 10600.
Take B4: the “Antibody AUC” value is 14900.
On to B5, for which the “Antibody AUC” value turned out to be 18600.

A further assay concerns the target T2, human TNFR2 (Novoprotein, Catalog No. …). Description: blocking ELISA, TNFα-biotin on coated human TNFR2, antibody 20 nM. As for the experimental part: as §3
Background: An ELISA detects its analyte on a solid surface through an enzyme-linked reagent.
For B1, the “ELISA OD of antibodies to be tested (20 nM)” value (shortened to “ELISA OD … (20 nM)”) was 0.35 OD.
Take B2: the “ELISA OD … (20 nM)” value is 0.454 OD.
The same measure, in the same setting: for B3 the value was 0.418 OD.
As to B4, the “ELISA OD … (20 nM)” value came out at 0.28 OD.
Still for that read-out and setting: the value for B5 was 0.237 OD.

A further assay concerns the target T3, cynomolgus TNFR2 (Sino 90102-C08H) (cynomolgus, UniProt A0A2K5VET2 132-366).
T3 construct: also called CynoTNFR2 (His tag)
T3 sequence: T2 sequence (looked up) with S16G, S36P, P117Q, N164H, E210A, S216G, M223V
Briefly: SPR Biacore, antibody on Protein A chip, TNFR2 analyte. As for the experimental part:
(§4) In this experiment, Protein A chip was used, and the time required for the chip to capture the diluted antibody was determined by manual run, so that the Rmax of the saturated binding antigen was 50 RU. Human TNFR2 (Sino 10417-H08H) and cynomolgus TNFR2 (Sino 90102-C08H) were diluted to 32, 16, 8, 4, 2 nM. The affinity of antibody and antigen was measured by multi-cycle kinetics. In each cycle, anti-TNFR2 antibodies were injected prior to the injection of gradient concentrations of TNFR2 protein allowing the occurrence of antibody-antigen association and dissociation. After each cycle, the Protein A chip was regenerated with Glycine pH1.5 (to remove the protein on the chip). BIAcore T200 analysis software was used to calculate the affinity KD of antibody binding to antigen.
For orientation: Surface plasmon resonance follows binding to a sensor surface in real time, without labels.
The term Kd denotes a measure of binding affinity in units of concentration. In general, koff refers to the rate constant with which the complex falls apart. For orientation: kon means the second-order rate constant of association. The molecule B1 had a Kd of 286 pM, an off-rate constant (koff) of 0.000172 s⁻¹ and a kon of 601000 M⁻¹ s⁻¹.
As to B2, binding was put at a Kd of 3610 pM, the koff was 0.0102 s⁻¹ and the kon is 2.82e+06 M⁻¹ s⁻¹.
Taken in the same sequence, the figures for B3 were 752 pM, 0.00308 s⁻¹ and 4.1e+06 M⁻¹ s⁻¹.
Regarding B4, the Kd was determined as 863 pM, the off-rate constant (koff) came to 0.000481 s⁻¹ and the on-rate (kon) stood at 558000 M⁻¹ s⁻¹.
As to B5, binding was put at a Kd of 577 pM, the dissociation rate constant (koff) was 0.000318 s⁻¹ and the on-rate constant (kon) was found to be 551000 M⁻¹ s⁻¹.

A further assay deals with T4, Human TNFR2 recombinant protein (Sino 10417-H08H) (human, UniProt P20333 23-257).
T4 construct: also called hTNFR2 (His tag)
T4 sequence (looked up): T2 sequence (looked up)
The description is as above. As for the experimental part: as §4
Regarding B1, the dissociation constant (Kd) is 107 pM, the koff turned out to be 5.46e-05 s⁻¹ and the kon was 510000 M⁻¹ s⁻¹.
On to B2, for which the dissociation constant (Kd) amounted to 2940 pM, the koff came out at 0.00388 s⁻¹ and the on-rate (kon) turned out to be 1.32e+06 M⁻¹ s⁻¹.
Take B3: the dissociation constant (Kd) was determined as 952 pM, the koff worked out at 0.00209 s⁻¹ and the kon amounted to 2.2e+06 M⁻¹ s⁻¹.
Taken in the same sequence, the figures for B4 were 234 pM, 8.4e-05 s⁻¹ and 358000 M⁻¹ s⁻¹.
Taken in the same sequence, the figures for B5 were 194 pM, 7.14e-05 s⁻¹ and 369000 M⁻¹ s⁻¹.

For the next assay, the target named is T1, human TNFR2 on the cell surface …. Briefly: cell-based or functional assay. This is another data set of the same source.
As for B1, the “% AUC versus positive control (#52), ADCC against Treg” value (from here on “% AUC versus positive control”) stood at 45.3%.
On to B2, for which the “% AUC versus positive control” value is 46.6%.
Same read-out and setting: the value for B3 was 70.7%; that for B4 was 52.7%.
Regarding B5, the “% AUC versus positive control” value came to 69%.

These data come from patent publication US20220017630A1 (JIANGSU SIMCERE PHARMACEUTICAL, published 2022).
